Experimental data as given in patent publication US20090053750A1 (CELL GENESYS, published 2009).

What was measured:
[1] = target: T1, class I MHC receptor HLA-A2 on T2 cells (human); assay: T2 cells, anti-HLA-A2 flow cytometry after brefeldin A; Assay #1; 0 hr
T1 construct: detected on the cell surface with a mouse anti-human HLA-A2 monoclonal antibody and goat anti-mouse IgG F(ab')2-FITC; also called HLA-A2 receptor; HLA-A2 class I MHC
Procedure: (§1) Following overnight incubation, the cells were washed and stained with mouse anti-human HLA-A2 monoclonal antibody for 15 min at 4° C.
(§2) After washing, the cells were incubated with goat anti-mouse IgG (F(ab′)₂)-FITC (Sigma, St. Louis, Mo.) for 15 min at 4° C. The cells were washed and analyzed on a FACSort flow cytometer with CellQuest v2.1 software (Becton-Dickson, San Jose, Calif.). […] Up-regulation of HLA-A2 expression correlates with binding of HLA-A2 by the filamin-B peptides.
(§3) To test the stability of the interaction between the peptides and HLA-A2, fluorescence was monitored for several hours following the addition of brefeldin A to the assay.

[2] = target: T1, class I MHC receptor HLA-A2 on T2 cells; assay: T2 cells pulsed with peptide + b2m, anti-HLA-A2 flow cytometry; Assay #2
Procedure: as §1, §2

[3] = target: T1, class I MHC receptor HLA-A2 on T2 cells; assay: T2 cells, anti-HLA-A2 flow cytometry after brefeldin A; Assay #2; 0 hr
Procedure: as §1, §2, §3

[4] = target: T1, class I MHC receptor HLA-A2 on T2 cells; assay: T2 cells pulsed with peptide + b2m, anti-HLA-A2 flow cytometry; Assay #1
Procedure: as §1, §2

[5] = target: T1, class I MHC receptor HLA-A2 on T2 cells; assay: T2 cells pulsed with peptide + b2m, anti-HLA-A2 flow cytometry; Average
Procedure: as §1, §2

[6] = target: T1, class I MHC receptor HLA-A2 on T2 cells; assay: T2 cells, anti-HLA-A2 flow cytometry after brefeldin A; Assay #2; 18 hr
Procedure: as §1, §2, §3

[7] = target: T1, class I MHC receptor HLA-A2 on T2 cells; assay: T2 cells, anti-HLA-A2 flow cytometry after brefeldin A; Average; 0 hr
Procedure: as §1, §2, §3

[8] = target: T1, class I MHC receptor HLA-A2 on T2 cells; assay: T2 cells, anti-HLA-A2 flow cytometry after brefeldin A; Assay #2; 6 hr
Procedure: as §1, §2, §3

[9] = target: T1, class I MHC receptor HLA-A2 on T2 cells; assay: T2 cells, anti-HLA-A2 flow cytometry after brefeldin A; Average; 2 hr
Procedure: as §1, §2, §3

[10] = target: T1, class I MHC receptor HLA-A2 on T2 cells; assay: T2 cells, anti-HLA-A2 flow cytometry after brefeldin A; Assay #1; 8 hr
Procedure: as §1, §2, §3

[11] = target: T1, class I MHC receptor HLA-A2 on T2 cells; assay: T2 cells, anti-HLA-A2 flow cytometry after brefeldin A; Assay #1; 2 hr
Procedure: as §1, §2, §3

[12] = target: T1, class I MHC receptor HLA-A2 on T2 cells; assay: T2 cells, anti-HLA-A2 flow cytometry after brefeldin A; Assay #1; 6 hr
Procedure: as §1, §2, §3

[13] = target: T1, class I MHC receptor HLA-A2 on T2 cells; assay: T2 cells, anti-HLA-A2 flow cytometry after brefeldin A; Average; 8 hr
Procedure: as §1, §2, §3

[14] = target: T1, class I MHC receptor HLA-A2 on T2 cells; assay: T2 cells, anti-HLA-A2 flow cytometry after brefeldin A; Assay #2; 2 hr
Procedure: as §1, §2, §3

[15] = target: T1, class I MHC receptor HLA-A2 on T2 cells; assay: T2 cells, anti-HLA-A2 flow cytometry after brefeldin A; Average; 18 hr
Procedure: as §1, §2, §3

[16] = target: T1, class I MHC receptor HLA-A2 on T2 cells; assay: T2 cells, anti-HLA-A2 flow cytometry after brefeldin A; Assay #2; 8 hr
Procedure: as §1, §2, §3

[17] = target: T1, class I MHC receptor HLA-A2 on T2 cells; assay: T2 cells, anti-HLA-A2 flow cytometry after brefeldin A; Average; 6 hr
Procedure: as §1, §2, §3

[18] = target: T1, class I MHC receptor HLA-A2 on T2 cells; assay: T2 cells, anti-HLA-A2 flow cytometry after brefeldin A; Assay #2; 4 hr
Procedure: as §1, §2, §3

[19] = target: T1, class I MHC receptor HLA-A2 on T2 cells; assay: T2 cells, anti-HLA-A2 flow cytometry after brefeldin A; Assay #1; 18 hr
Procedure: as §1, §2, §3

[20] = target: T1, class I MHC receptor HLA-A2 on T2 cells; assay: T2 cells, anti-HLA-A2 flow cytometry after brefeldin A; Assay #1; 4 hr
Procedure: as §1, §2, §3

[21] = target: T1, class I MHC receptor HLA-A2 on T2 cells; assay: T2 cells, anti-HLA-A2 flow cytometry after brefeldin A; Average; 4 hr
Procedure: as §1, §2, §3

Row | Binder | fluorescence index [1] [F.I.] | fluorescence index [2] | fluorescence index [3] [F.I.] | fluorescence index [4] | fluorescence index [5] | fluorescence index [6] [F.I.] | fluorescence index [7] [F.I.] | fluorescence index [8] [F.I.] | fluorescence index [9] [F.I.] | fluorescence index [10] [F.I.] | fluorescence index [11] [F.I.] | fluorescence index [12] [F.I.] | fluorescence index [13] [F.I.] | fluorescence index [14] [F.I.] | fluorescence index [15] [F.I.] | fluorescence index [16] [F.I.] | fluorescence index [17] [F.I.] | fluorescence index [18] [F.I.] | fluorescence index [19] [F.I.] | fluorescence index [20] [F.I.] | other results
1 | SLQESGLKV [Filamin B peptide #4] | 1.96 | 1.61 | 1.61 | 1.96 | 1.79 | 1 | 1.79 | 1 | 1.4 | 1.09 | 1.43 | 1.18 | 1.05 | 1.37 | 1.05 | 1 | 1.09 | 1.13 | 1.1 | 1.43 | fluorescence index [21]: 1.28 F.I.
2 | GQGDVMVFV [Filamin B peptide #6] | 2.67 | 1.96 | 1.96 | 2.67 | 2.32 | 1 | 2.32 | 1 | 1.67 | 1.09 | 1.74 | 1.23 | 1.05 | 1.6 | 1.05 | 1 | 1.12 | 1.29 | 1.1 | 1.65 | fluorescence index [21]: 1.47 F.I.
3 | GLAPLEVRV [Filamin B peptide #3] | 4.21 | 3.64 | 3.64 | 4.21 | 3.93 | 2.1 | 3.93 | 2.94 | 3.82 | 4.01 | 4.3 | 4.27 | 3.45 | 3.33 | 2.6 | 2.89 | 3.61 | 3.35 | 3.1 | 4.22 | fluorescence index [21]: 3.79 F.I.
4 | KLILGLVWT [Filamin B peptide #7] | 1.38 | 1.25 | 1.25 | 1.38 | 1.32 | 1 | 1.32 | 1 | 1.16 | 1.09 | 1.24 | 1.09 | 1.05 | 1.07 | 1.13 | 1 | 1.05 | 1.1 | 1.25 | 1.22 | fluorescence index [21]: 1.16 F.I.
5 | LILGLVWTL [Filamin B peptide #1] | 3.46 | 2.17 | 2.17 | 3.46 | 2.82 | 1.35 | 2.82 | 1.83 | 2.67 | 3.22 | 3.17 | 3.32 | 2.4 | 2.17 | 1.9 | 1.57 | 2.58 | 2.16 | 2.45 | 3.17 | fluorescence index [21]: 2.67 F.I.
